Data as given in the supplement of paper PMC11246515.
± gives the standard deviation of the averaged measurements.

Experiment: total protein half-life in vivo (active degradation + dilution); higher = more stable protein
[1] = E. coli NCM3722 delta-clpP delta-lon delta-hslV, growth: N-lim chemostat, doubling time 6 h
[2] = E. coli NCM3722 delta-clpP, growth: N-lim chemostat, doubling time 6 h
[3] = E. coli NCM3722 delta-hslV, growth: N-lim chemostat, doubling time 6 h
[4] = E. coli NCM3722 delta-lon, growth: N-lim chemostat, doubling time 6 h
[5] = E. coli NCM3722 delta-smpB, growth: N-lim chemostat, doubling time 6 h
[6] = wild type E. coli NCM3722, growth: C-lim chemostat, doubling time 3 h
[7] = wild type E. coli NCM3722, growth: C-lim chemostat, doubling time 6 h
[8] = wild type E. coli NCM3722, growth: C-lim chemostat, doubling time 12 h
[9] = wild type E. coli NCM3722, growth: N-lim chemostat, doubling time 6 h
[10] = wild type E. coli NCM3722, growth: N-lim chemostat, doubling time 12 h
[11] = wild type E. coli NCM3722, growth: P-lim chemostat, doubling time 6 h
[12] = wild type E. coli NCM3722, growth: P-lim chemostat, doubling time 12 h

Sequence	total protein half-life in vivo [1] [h]	total protein half-life in vivo [2] [h]	total protein half-life in vivo [3] [h]	total protein half-life in vivo [4] [h]	total protein half-life in vivo [5] [h]	total protein half-life in vivo [6] [h]	total protein half-life in vivo [7] [h]	total protein half-life in vivo [8] [h]	total protein half-life in vivo [9] [h]	total protein half-life in vivo [10] [h]	total protein half-life in vivo [11] [h]	total protein half-life in vivo [12] [h]
MSKRKVAIIGSGNIGTDLMIKILRHGQHLEMAVMVGIDPQSDGLARARRMGVATTHEGVIGLMNMPEFADIDIVFDATSAGAHVKNDAALREAKPDIRLIDLTPAAIGPYCVPVVNLEANVDQLNVNMVTCGGQATIPMVAAVSRVARVHYAEIIASIASKSAGPGTRANIDEFTETTSRAIEVVGGAAKGKAIIVLNPAEPPLMMRDTVYVLSDEASQDDIEASINEMAEAVQAYVPGYRLKQRVQFEVIPQDKPVNLPGVGQFSGLKTAVWLEVEGAAHYLPAYAGNLDIMTSSALATAEKMAQSLARKAGEAA	4.09 ± 1.4	5.24 ± 2.6	2.65 ± 0.48	2.43	2.21 ± 0.73	2.71 ± 0.36	4.45	6.77 ± 2.3	5.59	4.45	3.53	6.2 ± 0.2
MSKSNPSEVKLAVPTSGGFSGLKSLNLQVFVMIAAIIAIMLFFTWTTDGAYLSARNVSNLLRQTAITGILAVGMVFVIISAEIDLSVGSMMGLLGGVAAICDVWLGWPLPLTIIVTLVLGLLLGAWNGWWVAYRKVPSFIVTLAGMLAFRGILIGITNGTTVSPTSAAMSQIGQSYLPASTGFIIGALGLMAFVGWQWRGRMRRQALGLQSPASTAVVGRQALTAIIVLGAIWLLNDYRGVPTPVLLLTLLLLGGMFMATRTAFGRRIYAIGGNLEAARLSGINVERTKLAVFAINGLMVAIAGLILSSRLGAGSPSAGNIAELDAIAACVIGGTSLAGGVGSVAGAVMGAFIMASLDNGMSMMDVPTFWQYIVKGAILLLAVWMDSATKRRS [P0AGI4]	–	–	–	–	4.37 ± 0.55	3.44 ± 0.11	5.06 ± 1.1	9.1 ± 0.54	–	–	4.71 ± 0.42	8.47
MSKTIATENAPAAIGPYVQGVDLGNMIITSGQIPVNPKTGEVPADVAAQARQSLDNVKAIVEAAGLKVGDIVKTTVFVKDLNDFATVNATYEAFFTEHNATFPARSCVEVARLPKDVKIEIEAIAVRR [P0AF93]	6.26 ± 0.82	5.12 ± 0.65	5.28 ± 0.082	5.91 ± 0.21	5.15 ± 0.68	3.16 ± 0.28	5.56 ± 0.15	10.8 ± 1.1	4.88 ± 0.16	8.99 ± 0.37	5.694 ± 0.0093	12.8 ± 0.61
MSLAKASLWTAASTLVKIGAGLLVGKLLAVSFGPAGLGLAANFRQLITVLGVLAGAGIFNGVTKYVAQYHDNPQQLRRVVGTSSAMVLGFSTLMALVFVLAAAPISQGLFGNTDYQGLVRLVALVQMGIAWGNLLLALMKGFRDAAGNALSLIVGSLIGVLAYYVSYRLGGYEGALLGLALIPALVVIPAAIMLIKRGVIPLSYLKPSWDNGLAGQLSKFTLMALITSVTLPVAYIMMRKLLAAQYSWDEVGIWQGVSSISDAYLQFITASFSVYLLPTLSRLTEKRDITREVVKSLKFVLPAVAAASFTVWLLRDFAIWLLLSNKFTAMRDLFAWQLVGDVLKVGAYVFGYLVIAKASLRFYILAEVSQFTLLMVFAHWLIPAHGALGAAQAYMATYIVYFSLCCGVFLLWRRRA [P0AAA7]	–	–	–	–	–	–	–	–	–	–	5.48	–
MSLDINQIALHQLIKRDEQNLELVLRDSLLEPTETVVEMVAELHRVYSAKNKAYGLFSEESELAQTLRLQRQGEEDFLAFSRAATGRLRDELAKYPFADGGFVLFCHYRYLAVEYLLVAVLSNLSSMRVNENLDINPTHYLDINHADIVARIDLTEWETNPESTRYLTFLKGRVGRKVADFFMDFLGASEGLNAKAQNRGLLQAVDDFTAEAQLDKAERQNVRQQVYSYCNEQLQAGEEIELKSLSKELAGVSEVSFTEFAAEKGYELEESFPADRSTLRQLTKFAGSGGGLTINFDAMLLGERIFWDPATDTLTIKGTPPNLRDQLQRRTSGGN	6.4 ± 0.28	6.91 ± 0.46	5.81 ± 0.19	5.78 ± 0.17	5.911 ± 0.055	3.22 ± 0.17	6.07 ± 0.17	10.4 ± 2.2	6.08 ± 0.28	12 ± 2.2	6.08 ± 0.094	12.7 ± 0.4
MSLHSPGKAFRAALTKENPLQIVGTINANHALLAQRAGYQAIYLSGGGVAAGSLGLPDLGISTLDDVLTDIRRITDVCSLPLLVDADIGFGSSAFNVARTVKSMIKAGAAGLHIEDQVGAKRCGHRPNKAIVSKEEMVDRIRAAVDAKTDPDFVIMARTDALAVEGLDAAIERAQAYVEAGAEMLFPEAITELAMYRQFADAVQVPILANITEFGATPLFTTDELRSAHVAMALYPLSAFRAMNRAAEHVYNVLRQEGTQKSVIDTMQTRNELYESINYYQYEEKLDNLFARSQVK	3.59 ± 0.66	–	–	–	–	–	4.13 ± 0.31	5.82 ± 0.58	4.7	–	–	–
MSLISMHGAWLSFSDAPLLDNAELHIEDNERVCLVGRNGAGKSTLMKILNREQGLDDGRIIYEQDLIVARLQQDPPRNVEGSVYDFVAEGIEEQAEYLKRYHDISRLVMNDPSEKNLNELAKVQEQLDHHNLWQLENRINEVLAQLGLDPNVALSSLSGGWLRKAALGRALVSNPRVLLLDEPTNHLDIETIDWLEGFLKTFNGTIIFISHDRSFIRNMATRIVDLDRGKLVTYPGNYDQYLLEKEEALRVEELQNAEFDRKLAQEEVWIRQGIKARRTRNEGRVRALKAMRRERGERREVMGTAKMQVEEASRSGKIVFEMEDVCYQVNGKQLVKDFSAQVLRGDKIALIGPNGCGKTTLLKLMLGQLQADSGRIHVGTKLEVAYFDQHRAELDPDKTVMDNLAEGKQEVMVNGKPRHVLGYLQDFLFHPKRAMTPVRALSGGERNRLLLARLFLKPSNLLILDEPTNDLDVETLELLEELIDSYQGTVLLVSHDRQFVDNTVTECWIFEGGGKIGRYVGGYHDARGQQEQYVALKQPAVKKTEEAAAAKAETVKRSSSKLSYKLQRELEQLPQLLEDLEAKLEALQTQVADASFFSQPHEQTQKVLADMAAAEQELEQAFERWEYLEALKNGG	4.79 ± 0.63	5.1 ± 0.79	4.73 ± 0.16	4.8 ± 0.17	4.38 ± 0.62	3.41 ± 0.18	5.82 ± 0.35	10.4 ± 1.5	4.37 ± 0.087	7.15 ± 0.13	5.42 ± 0.33	9.51 ± 0.35
